# Measurements taken from patent US20210355194A1 (TWIST BIOSCIENCE, published 2021).
# Substitutions are numbered along the chain they refer to. Where two headings read alike, the source gives them in different places.
# B1: variant 6-3 (Fc fusion)
# VHH: EVQLVESGGGLVQPGGSLRLSCAASGFTFSPSWMGWFRQAPGKEREFVATINEYGGRNYADSVKGRFTISADNSKNTAYLQMNSLKPEDTAVYYCARVDRDFDYWGQGTLVTVSS
# B2: variant 6-26 (Fc fusion)
# VHH: B1 VHH with F27D, P31T, E53T, Y54G, R57T, D99T, R100T, D101S
# B3: variant 5-37 (Fc fusion)
# VHH: EVQLVESGGGLVQPGGSLRLSCAASGSTFSINAMGWFRQAPGKEREFVGGISRSGATTNYADSVKGRFTISADNSKNTAYLQMNSLKPEDTAVYYCAADGVPEYSDYASGPVWGQGTLVTVSS
# B4: variant 6-63 (Fc fusion)
# VHH: EVQLVESGGGLVQPGGSLRLSCAASGQTFNMGWFRQAPGKEREFVAAIGSGGSTSYADSVKGRFTISADNSKNTAYLQMNSLKPEDTAVYYCWRLGNDYFDYWGQGTLVTVSS
# notes: also called VHH nanobody 6-63
# B5: variant 5-1 (Fc fusion)
# VHH: EVQLVESGGGLVQPGGSLRLSCAASGGTFSSIGMGWFRQAPGKEREFVAAISWDGGATAYADSVKGRFTISADNSKNTAYLQMNSLKPEDTAVYYCAKEDVGKPFDWGQGTLVTVSS
# B6: variant 5-34 (Fc fusion)
# VHH: EVQLVESGGGLVQPGGSLRLSCAASGRTFSRYIMGWFRQAPGKEREFVAAISWSGGDNTYYADSVKGRFTISADNSKNTAYLQMNSLKPEDTAVYYCAAYRIVVGGTSPGDWRWGQGTLVTVSS
# B7: SARS-CoV-2 variant 1-49 (antibody, V domains shown)
# VH: EVQLLESGGGLVQPGGSLRLSCAASGFTFSSYAMYWVRQAPGKGLEWVSAISGSAGSTYYADSVKGRFTISRDNSKNTLYLQMNSLRAEDTAVYYCARDTNDFWGQGTLVTVSS
# VL: QSALTQPASVSGSPGQSITISCTGTSSDIGSYNLVSWYQQHPGKAPKLMIYEGTKRPSGVSNRFSGSKSGNTASLTISGLQAEDEADYYCCSYAGSRTYVFGGGTKLTVL
# B8: SARS-CoV-2 variant 1-32 (antibody, V domains shown)
# VH: EVQLLESGGGLVQPGGSLRLSCAASGFTFSSYAMYWVRQAPGKGLEWVSAISGSGGSTFYADSVKGRFTISRDNSKNTLYLQMNSLRAEDTAVYYCTRPPYGDYGDYWGQGTLVTVSS
# VL: QSALTQPASVSGSPGQSITISCTGTSSDVGGYNLVSWYQQHPGKAPKLMIYEGNKRPSGVSNRFSGSKSGNTASLTISGLQAEDEADYYCCSYAGSSTFPVVFGGGTKLTVL
# B9: variant 6-73 (Fc fusion)
# VHH: EVQLVESGGGLVQPGGSLRLSCAASGHTFSGYAMGWFRQAPGKEREFVAVITREGSTYYADSVKGRFTISADNSKNTAYLQMNSLKPEDTAVYYCARLGGEGFDYWGQGTLVTVSS
# B10: variant 6-55 (Fc fusion)
# VHH: EVQLVESGGGLVQPGGSLRLSCAASGFTMSSSWMGWFRQAPGKEREFVARITSGGSTGYADSVKGRFTISADNSKNTAYLQMNSLKPEDTAVYYCASVDGYFDYWGQGTLVTVSS
# B11: variant 6-85 (Fc fusion)
# VHH: EVQLVESGGGLVQPGGSLRLSCAASGGTFSVFAMGWFRQAPGKEREFVSAINWSGGSLLYADSVKGRFTISADNSKNTAYLQMNSLKPEDTAVYYCALFGDFDYWGQGTLVTVSS
# B12: variant 5-20 (Fc fusion)
# VHH: EVQLVESGGGLVQPGGSLRLSCAASGRTIVPYTMGWFRQAPGKERELVAAISPSAFTEYADSVKGRFTISADNSKNTAYLQMNSLKPEDTAVYYCAARRWGYDWGQGTLVTVSS
# B13: variant 6-60 (Fc fusion)
# VHH: EVQLVESGGGLVQPGGSLRLSCAASGDTYGSYWMGWFRQAPGKEREFVATISQSGAATAYADSVKGRFTISADNSKNTAYLQMNSLKPEDTAVYYCAGLLRYSGTYYDAFDVWGQGTLVTVSS
# B14: SARS-CoV-2 variant 1-4 (antibody, V domains shown)
# VH: EVQLLESGGGLVQPGGSLRLSCAASGFTFSSQAMSWVRQAPGKGLEWVSAISGSGGGTYYADSVKGRFTISRDNSKNTLYLQMNSLRAEDTAVYYCAKDRRFGEFDPWGQGTLVTVSS
# VL: QSALTQPASVSGSPGQSITISCTGTSSDVGTYNLVSWYQQHPGKAPKLMIYEGSQRPSGVSNRFSGSKSGNTASLTISGLQAEDEADYYCCSYAGSSSFVVFGGGTKLTVL
# B15: SARS-CoV-2 variant 1-3 (antibody, V domains shown)
# VH: B14 VH
# VL: B14 VL with T25I, T31S, S54T, Q55K
# B16: SARS-CoV-2 variant 1-28 (antibody, V domains shown)
# VH: EVQLLESGGGLVQPGGSLRLSCAASGFTFSSYGMSWVRQAPGKGLEWVSAISGSGGGTYYADSVKGRFTISRDNSKNTLYLQMNSLRAEDTAVYYCASSSSWQFDYWGQGTLVTVSS
# VL: B14 VL with D28G, T31S, S98T, F99H, V100Y
# B17: SARS-CoV-2 variant 1-31 (antibody, V domains shown)
# VH: B8 VH with Y35N
# VL: B14 VL with T31K, S97R, S98T, F99P
# B18: SARS-CoV-2 variant 1-5 (antibody, V domains shown)
# VH: B14 VH
# VL: B14 VL with D28G, T31S, G53A, Q55K, S97Y, S98T, V100A
# B19: SARS-CoV-2 variant 1-30 (antibody, V domains shown)
# VH: B8 VH with Y35T
# VL: B14 VL with S27R, T31S, S54T, Q55K, S97R, S98T, F99P
# B20: variant 6-20 (Fc fusion)
# VHH: EVQLVESGGGLVQPGGSLRLSCAASGSTLPYHAMGWFRQAPGKEREFVAAITWNGASTSYADSVKGRFTISADNSKNTAYLQMNSLKPEDTAVYYCARDRYYDTSASYFESETWGQGTLVTVSS
# B21: variant 6-78 (Fc fusion)
# VHH: EVQLVESGGGLVQPGGSLRLSCAASGRTYDAMGWFRQAPGKEREFVASVTSGGYTHYADSVKGRFTISADNSKNTAYLQMNSLKPEDTAVYYCAKFGRKIVGATELDYWGQGTLVTVSS
# B22: variant 6-76 (Fc fusion)
# VHH: EVQLVESGGGLVQPGGSLRLSCAASGLAFDFDGMGWFRQAPGKEREGVAAINSGGSTYYADSVKGRFTISADNSKNTAYLQMNSLKPEDTAVYYCARFFRAHDYWGQGTLVTVSS
# What was measured:
# [1] = biological target: T1, SARS-CoV-2 spike on live SARS-CoV-2 virus (SARS-CoV-2, UniProt P0DTC2 14-1273); assay: cell-based or functional assay
# [2] = biological target: SARS-CoV-2 spike on VSV-pseudotype SARS-CoV-2 (SARS-CoV-2, UniProt P0DTC2 14-1273); assay: cell-based or functional assay
# [3] = biological target: T1, SARS-CoV-2 spike on live SARS-CoV-2 …; assay: cell-based or functional assay; remark: listed apart in the source
# [4] = biological target: T1, SARS-CoV-2 spike on live SARS-CoV-2 …; assay: cell-based or functional assay; remark: listed apart in the source
# [5] = biological target: T2, COVID S1 RBM Fc fusion (Antigen 2) (SARS-CoV-2, UniProt P0DTC2 437-508); assay: phage ELISA
# S1 Fc fusion protein [6] = biological target: T3, S1 Fc fusion protein (SARS-CoV-2, UniProt P0DTC2 14-685); assay: phage ELISA
# [7] = biological target: T2, COVID S1 RBM Fc fusion (Antigen 2); assay: phage ELISA; remark: listed apart in the source
# S1 Fc fusion protein [8] = biological target: T3, S1 Fc fusion protein; assay: phage ELISA; remark: listed apart in the source
Binder,PRNT90 [1],NC50 [2],EC80 [3],EC50 [4],ELISA fold over background [5],ELISA fold over background (S1 Fc fusion protein [6]),ELISA fold over background [7],ELISA fold over background (S1 Fc fusion protein [8])
B1,< 0.98 ng/mL,0.06 µg/mL,0.115 µg/mL,0.06 µg/mL,,,,
B2,62.5 ng/mL,2.97 µg/mL,3.61 µg/mL,2.97 µg/mL,,,,
B3,,,12.4 µg/mL,,,,,
B4,3.9 ng/mL,0.06 µg/mL,0.0579 µg/mL,0.06 µg/mL,,,,
B5,15.6 ng/mL,0.1 µg/mL,0.811 µg/mL,0.1 µg/mL,,,,
B6,15.6 ng/mL,0.54 µg/mL,0.57 µg/mL,0.54 µg/mL,,,,
B7,,,,,0.8 fold,0.8 fold,0.8 fold,0.8 fold
B8,,,,,1.1 fold,4 fold,1.1 fold,4 fold
B9,250 ng/mL,1.46 µg/mL,2.02 µg/mL,1.46 µg/mL,,,,
B10,62.5 ng/mL,0.21 µg/mL,0.445 µg/mL,0.21 µg/mL,,,,
B11,62.5 ng/mL,0.84 µg/mL,1.06 µg/mL,0.84 µg/mL,,,,
B12,3.9 ng/mL,0.27 µg/mL,0.376 µg/mL,0.27 µg/mL,,,,
B13,< 0.98 ng/mL,0.15 µg/mL,0.237 µg/mL,0.15 µg/mL,,,,
B14,,,,,1.1 fold,0.9 fold,1.1 fold,0.9 fold
B15,,,,,1.5 fold,1.5 fold,1.5 fold,1.5 fold
B16,,,,,1.2 fold,1.1 fold,1.2 fold,1.1 fold
B17,,,,,1.2 fold,15.7 fold,1.2 fold,15.7 fold
B18,,,,,1.4 fold,1.2 fold,1.4 fold,1.2 fold
B19,,,,,1.4 fold,5.6 fold,1.4 fold,5.6 fold
B20,15.6 ng/mL,5.03 µg/mL,2.31 µg/mL,5.03 µg/mL,,,,
B21,250 ng/mL,8.26 µg/mL,13.8 µg/mL,8.26 µg/mL,,,,
B22,3.9 ng/mL,1.08 µg/mL,0.426 µg/mL,1.08 µg/mL,,,,
